The text below walks through data of the supplement of paper PMC11246515.

± gives the standard deviation of the averaged measurements.

The nature of this data set: total protein half-life in vivo (active degradation + dilution); higher = more stable protein.
[1] abbreviates: E. coli NCM3722 delta-clpP, growth: N-lim chemostat, doubling time 6 h.
The mark [2] stands for this setting: E. coli NCM3722 delta-hslV, growth: N-lim chemostat, doubling time 6 h.
Where [3] appears, read: E. coli NCM3722 delta-smpB, growth: N-lim chemostat, doubling time 6 h.
[4] abbreviates: wild type E. coli NCM3722, growth: C-lim chemostat, doubling time 3 h.
Setting [5] is: wild type E. coli NCM3722, growth: C-lim chemostat, doubling time 6 h.
Where [6] appears, read: wild type E. coli NCM3722, growth: C-lim chemostat, doubling time 12 h.
[7] abbreviates: wild type E. coli NCM3722, growth: N-lim chemostat, doubling time 6 h.
Setting [8] is: wild type E. coli NCM3722, growth: N-lim chemostat, doubling time 12 h.
[9] abbreviates: wild type E. coli NCM3722, growth: P-lim chemostat, doubling time 6 h.
[10] abbreviates: wild type E. coli NCM3722, growth: P-lim chemostat, doubling time 12 h.
Setting [11] is: E. coli NCM3722 delta-clpP delta-lon delta-hslV, growth: N-lim chemostat, doubling time 6 h.
The mark [12] stands for this setting: E. coli NCM3722 delta-lon, growth: N-lim chemostat, doubling time 6 h.

As for “MTEKKYIVALDQGTTSSRAVVMDHDANIISVSQREFEQIYPKPGWVEHDPMEIWATQSSTLVEVLAKADISSDQIAAIGITNQRETTIVWEKETGKPIYNAIVWQCRRTAEICEHLKRDGLEDYIRSNTGLVIDPYFSGTKVKWILDHVEGSRERARRGELLFGTVDTWLIWKMTQGRVHVTDYTNASRTMLFNIHTLDWDDKMLEVLDIPREMLPEVRRSSEVYGQTNIGGKGGTRIPISGIAGDQQAALFGQLCVKEGMAKNTYGTGCFMLMNTGEKAVKSENGLLTTIACGPTGEVNYALEGAVFMAGASIQWLRDEMKLINDAYDSEYFATKVQNTNGVYVVPAFTGLGAPYWDPYARGAIFGLTRGVNANHIIRATLESIAYQTRDVLEAMQADSGIRLHALRVDGGAVANNFLMQFQSDILGTRVERPEVREVTALGAAYLAGLAVGFWQNLDELQEKAVIEREFRPGIETTERNYRYAGWKKAVKRAMAWEEHDE [P0A6F3]”, the “total protein half-life in vivo” value stood at 6.74 ± 0.14 h under setting [1]; 6.32 ± 0.39 h under setting [2]; 5.64 ± 0.067 h under setting [3]; 3.28 ± 0.085 h under setting [4]; 5.398 ± 0.033 h under setting [5]; 9.61 ± 1.5 h under setting [6]. The “total protein half-life in vivo” value is, setting by setting: under setting [7], 5.983 ± 0.059 h; under setting [8], 12.7 ± 0.32 h; under setting [9], 6.31 ± 0.66 h; under setting [10], 13 ± 0.85 h.
On to “MKAFNKLFSLVVASVLVFSLAGCGDKEESKKFSANLNGTEIAITYVYKGDKVLKQSSETKIQFASIGATTKEDAAKTLEPLSAKYKNIAGVEEKLTYTDTYAQENVTIDMEKVDFKALQGISGINVSAEDAKKGITMAQMELVMKAAGFKEVK”, for which the “total protein half-life in vivo” value is, setting by setting: under setting [11], 5.1 h; under setting [1], 5.39 h; under setting [2], 5.31 h; under setting [12], 5.76 ± 0.26 h; under setting [3], 4.61 ± 0.12 h; under setting [4], 2.68 h. Further, the “total protein half-life in vivo” value is, setting by setting: under setting [5], 4.07 ± 0.38 h; under setting [6], 7.55 h; under setting [7], 5.76 ± 0.11 h; under setting [8], 9.71 ± 1.6 h; under setting [9], 5.3 h.
Turning to “MSQLTHINAAGEAHMVDVSAKAETVREARAEAFVTMRSETLAMIIDGRHHKGDVFATARIAGIQAAKRTWDLIPLCHPLMLSKVEVNLQAEPEHNRVRIETLCRLTGKTGVEMEALTAASVAALTIYDMCKAVQKDMVIGPVRLLAKSGGKSGDFKVEADD [P0A738]”, the “total protein half-life in vivo” value amounted to 5.289 ± 0.028 h under setting [11]; 5.03 ± 0.15 h under setting [1]; 4.56 ± 0.47 h under setting [2]; 4.41 ± 0.087 h under setting [12]; 3.95 ± 0.17 h under setting [3]; 2.9 ± 0.24 h under setting [4]. Further, the “total protein half-life in vivo” value worked out at 4.96 ± 0.099 h under setting [5]; 8.28 ± 0.49 h under setting [6]; 4.1 ± 0.28 h under setting [7]; 5.91 ± 0.19 h under setting [8]; 4.92 ± 0.059 h under setting [9]; 9.42 ± 0.47 h under setting [10].
For the sequence “MTRYQHLATLLAERIEQGLYRHGEKLPSVRSLSQEHGVSISTVQQAYQTLETMKLITPQPRSGYFVAQRKAQPPVPPMTRPVQRPVEITQWDQVLDMLEAHSDSSIVPLSKSTPDVEAPSLKPLWRELSRVVQHNLQTVLGYDLLAGQRVLREQIARLMLDSGSVVTADDIIITSGCHNSMSLALMAVCKPGDIVAVESPCYYGSMQMLRGMGVKVIEIPTDPETGISVEALELALEQWPIKGIILVPNCNNPLGFIMPDARKRAVLSLAQRHDIVIFEDDVYGELATEYPRPRTIHSWDIDGRVLLCSSFSKSIAPGLRVGWVAPGRYHDKLMHMKYAISSFNVPSTQMAAATFVLEGHYHRHIRRMRQIYQRNLALYTCWIREYFPCEICITRPKGGFLLWIELPEQVDMVCVARQLCRMKIQVAAGSIFSASGKYRNCLRINCALPLSETYREALKQIGEAVYRAME”, the “total protein half-life in vivo” value by setting is: under setting [11], 6.94 ± 1 h; under setting [1], 3.72 ± 0.22 h; under setting [2], 2.89 h; under setting [3], 2.79 ± 0.039 h; under setting [4], 3.04 ± 0.04 h; under setting [5], 4.58 ± 0.076 h. Further, the “total protein half-life in vivo” value reads like this: under setting [6], 7.69 ± 0.59 h; under setting [7], 3.09 ± 0.11 h; under setting [9], 3.19 ± 0.25 h; under setting [10], 6.91 ± 3.5 h.
Consider “MNRFIMANSQQCLGCHACEIACVMAHNDEQHVLSQHHFHPRITVIKHQQQRSAVTCHHCEDAPCARSCPNGAISHVDDSIQVNQQKCIGCKSCVVACPFGTMQIVLTPVAAGKVKATAHKCDLCAGRENGPACVENCPADALQLVTDVALSGMAKSRRLRTARQEHQPWHASTAAQEMPVMSKVEQMQATPARGEPDKLAIEARKTGFDEIYLPFRADQAQREASRCLKCGEHSVCEWTCPLHNHIPQWIELVKAGNIDAAVELSHQTNTLPEITGRVCPQDRLCEGACTIRDEHGAVTIGNIERYISDQALAKGWRPDLSHVTKVDKRVAIIGAGPAGLACADVLTRNGVGVTVYDRHPEIGGLLTFGIPSFKLDKSLLARRREIFSAMGIHFELNCEVGKDVSLDSLLEQYDAVFVGVGTYRSMKAGLPNEDAPGVYDALPFLIANTKQVMGLEELPEEPFINTAGLNVVVLGGGDTAMDCVRTALRHGASNVTCAYRRDEANMPGSKKEVKNAREEGANFEFNVQPVALELNEQGHVCGIRFLRTRLGEPDAQGRRRPVPVEGSEFVMPADAVIMAFGFNPHGMPWLESHGVTVDKWGRIIADVESQYRYQTTNPKIFAGGDAVRGADLVVTAMAEGRHAAQGIIDWLGVKSVKSH”, for which the “total protein half-life in vivo” value is 5.28 h under setting [11] and 1.34 h under setting [6].
With “MSKVTPQPKIGFVSLGCPKNLVDSERILTELRTEGYDVVPSYDDADMVIVNTCGFIDSAVQESLEAIGEALNENGKVIVTGCLGAKEDQIREVHPKVLEITGPHSYEQVLEHVHHYVPKPKHNPFLSLVPEQGVKLTPRHYAYLKISEGCNHRCTFCIIPSMRGDLVSRPIGEVLSEAKRLVDAGVKEILVISQDTSAYGVDVKHRTGFHNGEPVKTSMVSLCEQLSKLGIWTRLHYVYPYPHVDDVIPLMAEGKILPYLDIPLQHASPRILKLMKRPGSVDRQLARIKQWREICPELTLRSTFIVGFPGETEEDFQMLLDFLKEARLDRVGCFKYSPVEGADANALPDQVPEEVKEERWNRFMQLQQQISAERLQEKVGREILVIIDEVDEEGAIGRSMADAPEIDGAVYLNGETNVKPGDILRVKVEHADEYDLWGSRV [P0AEI4]”, the “total protein half-life in vivo” value worked out at 4.5 ± 0.2 h under setting [11]; 2.28 ± 0.062 h under setting [1]; 3.6 ± 0.089 h under setting [2]; 4.08 ± 0.84 h under setting [12]; 2.94 ± 0.053 h under setting [3]; 2.36 ± 0.54 h under setting [4]. The “total protein half-life in vivo” value worked out at 4.39 ± 0.39 h under setting [5]; 7.02 ± 1.1 h under setting [6]; 3.47 ± 0.46 h under setting [7]; 5.31 ± 0.15 h under setting [8]; 4.37 ± 0.28 h under setting [9]; 6.68 ± 0.64 h under setting [10].
Turning to “MSTTIEKIQRQIAENPILLYMKGSPKLPSCGFSAQAVQALAACGERFAYVDILQNPDIRAELPKYANWPTFPQLWVDGELVGGCDIVIEMYQRGELQQLIKETAAKYKSEEPDAE [P0AC69]”, the “total protein half-life in vivo” value by setting is: under setting [11], 6.29 h; under setting [1], 5.76 ± 1.2 h; under setting [2], 3.71 ± 0.071 h; under setting [12], 4.31 ± 0.19 h; under setting [3], 3.43 ± 0.19 h; under setting [4], 2.37 ± 0.19 h. For the same sequence, the “total protein half-life in vivo” value amounted to 5.03 ± 0.74 h under setting [5]; 6.84 ± 0.26 h under setting [6]; 3.25 ± 0.33 h under setting [7]; 5.45 ± 0.99 h under setting [8]; 4.67 ± 1.3 h under setting [9]; 11.4 ± 3.8 h under setting [10].
